From US20120020948A1, “DAG-TYPE AND INDIRECT PROTEIN KINASE C ACTIVATORS AND ANTICOAGULANT FOR THE TREATMENT OF STROKE” (priority 2010, published 2012)

System: rats with focal ischemia (MCAO)
Assay: Mortality after focal ischemia (MCAO) stroke
Format: in vivo
Settings: rTPA i.v. 6 hours after the stroke, with or without bryostatin-1 2 hours later
Protocol: A transient animal model of focal ischemia was used for these experiments. The middle cerebral artery (MCA) was surgically dissected and occluded in anesthetized rats by ligature, followed by reperfusion after a defined period (about 2 hours). Animal models transient ischemia via occlusion of the MCA (MCAO) are described in, e.g., Sicard and Fisher, Exp. & Transl. Stroke Med. (2009), vol. 1, pp. 1-7.
In contrast, if rTPA was given 6 hours after the stroke, in the absence of subsequent treatment with bryostatin, 44% mortality was observed (N=6 animals).

B1: rTPA: recombinant tissue plasminogen activator, thrombolytic serine protease approved for ischemic stroke (protein, UniProt P00750 36-562, looked up)
Tissue-type plasminogen …: SYQVICRDEKTQMIYQQHQSWLRPVLRSNRVEYCWCNSGRAQCHSVPVKSCSEPRCFNGGTCQQALYFSDFVCQCPEGFAGKCCEIDTRATCYEDQGISYRGTWSTAESGAECTNWNSSALAQKPYSGRRPDAIRLGLGNHNYCRNPDRDSKPWCYVFKAGKYSSEFCSTPACSEGNSDCYFGNGSAYRGTHSLTESGASCLPWNSMILIGKVYTAQNPSAQALGLGKHNYCRNPDGDAKPWCHVLKNRRLTWEYCDVPSCSTCGLRQYSQPQFRIKGGLFADIASHPWQAAIFAKHRRSPGERFLCGGILISSCWILSAAHCFQERFPPHHLTVILGRTYRVVPGEEEQKFEVEKYIVHKEFDDDTYDNDIALLQLKSDSSRCAQESSVVRTVCLPPADLQLPDWTECELSGYGKHEALSPFYSERLKEAHVRLYPSSRCTSQHLLNRTVTDNMLCAGDTRSGGPQANLHDACQGDSGGPLVCLNDGRMTLVGIISWGLGCGQKDVPGVYTKVTNYLDWIRDNMRP
  mortality 24 hours later: 44%
